Reference: patent publication US20250368684A1, “NEW EGFRVIII-BINDING PEPTIDES, CONJUGATES AND USES THEREOF” (NANOTHERA BIOSCIENCES, INC., priority 2021, published 2025)
*: point of attachment. FITC = O=C1OC2(c3ccc(O)cc3Oc3cc(O)ccc32)c2ccc(NC(=S)*)cc21; Ahx = NCCCCCC(=O)O

Legend:
[1] = target: T1, hEGFRvIII (Homo sapiens, UniProt P00533, DELINS30-297G); assay: Phage display biopanning against hEGFRvIII with NGS enrichment analysis; assay type: binding; conditions: over rounds of biopanning
T1 construct: using purified and active extracellular domain for EGFRvIII protein; purchased Sino Biological
Experimental: Ph.D.-12™ Phage Display Peptide Library Kit was purchased from New England Biolabs Inc. (Beverly, MA, USA). Biopanning procedures were done according to the manufacturer's instruction with certain modifications. Briefly, a 96-well plate was coated with 150 μL hEGFRvIII (Sino Biological) (in the first two rounds at 100 μg/mL, the third round at 10 μg/mL) overnight at 4° C. Wells were washed with PBS, blocked with blocking buffer (3% BSA in PBS), washed six times with cold PBST (PBS+0.1% [v/v] Tween-20), then incubated with […] phage peptide library Ph.D.-12 for 2 hours at RT. […]
The NGS data analysis is an imperative approach to filter out all the non-specific binders and identify the putative binders. In addition, NGS also allows us to perform deeper quantitative analysis, such as calculating the frequency of amino acids distribution in each position of the peptide sequence, consensus motif and target unrelated peptides. […] This is highly useful as we can follow how the read of a peptide evolves or changes with the rounds of biopanning. […] The total number of sequences and the corresponding number of reads for each DNA sequence are recorded in a separate CSV file. […] Due to codon degeneracy, different codons can translate into same amino acids, thus after translation identical sequences exist with different reads. […]

[2] = target: T2, human EGF receptor variant III (EGFRvIII) on CLTH/EGFRvIII cells (human, UniProt P00533 25-1210); assay: flow cytometry, normalized MFI on EGFRvIII cells over normalized MFI on EGFR WT cells
T2 construct: whole, on cells
Experimental: On FITC-Ahx-peptides. Flow cytometry analysis was also performed to quantitatively analyze the binding affinity of the synthetized peptides to the different cell types. […] The next day, cells were treated with FITC-Ahx-peptides using a stock solution in pure DMSO at 5 mM to reach a final concentration of 10 µM (final percentage of DMSO of 0.2%). Plates were incubated for 20 min at RT. Cells were detached from the plates by a PBS fush, transferred to FACS tubes and washed 2 times with 4 mL of PBS. Cells were stained with LIVE/DEAD™ Fixable Near-IR Dead Cell Stain Kit (Thermofisher) as a viability marker. Cells were analyzed by flow cytometry on a MACSQuant Analyser 16 (Miltenyi Biotec) using the MACS Quantify software to acquire and process the data. LIVE/DEAD™ Fixable dye was excited at 640 nm and fluorescence was collected with the 785/62 nm filter. FITC was excited at 488 nm and fluorescence was collected with the 525/50 nm filter. Viable cells were gated, FITC fluorescence intensity was recorded and the mean fluorescence intensity (MFI) was measured. MFI values were then normalized by substracting MFI from blank cells and dividing by the correction factor determined using a spectrofluorimeter.

NPIVRSAEDGQL (Negative hit peptide) [negative hit peptide from biopanning]
enrichment on NGS [1]: didn't show any significant enrichment

B1: FITC-Ahx-YHWYGYTPENVI-CONH2 (peptide)
peptide: {FITC-Ahx}-YHWYGYTPENVI-NH2
SMILES: CC[C@H](C)[C@H](NC(=O)[C@@H](NC(=O)[C@H](CC(N)=O)NC(=O)[C@H](CCC(=O)O)NC(=O)[C@@H]1CCCN1C(=O)[C@@H](NC(=O)[C@H](Cc1ccc(O)cc1)NC(=O)CNC(=O)[C@H](Cc1ccc(O)cc1)NC(=O)[C@H](Cc1c[nH]c2ccccc12)NC(=O)[C@H](Cc1c[nH]cn1)NC(=O)[C@H](Cc1ccc(O)cc1)NC(=O)CCCCCNC(=S)Nc1ccc2c(c1)C(=O)OC21c2ccc(O)cc2Oc2cc(O)ccc21)[C@@H](C)O)C(C)C)C(N)=O
Normalized MFI ratio vIII/WT [2]: 2.1
